Experimental data from patent US7153654.

Target: anti-hCG monoclonal antibody from Organon Teknika
Assay: competition: hCG displaces FpepT (5.5×10^-8 M) from anti-hCG Mab (4.5×10^-8 M), fluorescence EX=561 nm EM=590 nm; K1 of the fit

Kd: 0.49 nM
Substance: human chorionic gonadotrophin (hCG) (from UniProt P01215 25-116; P0DN86 21-165) (ligand)
